Results as given in PMC4052767.

Biological target: Hat1p/Hat2p/H4_(1-48) complex (yeast (Saccharomyces cerevisiae) | yeast) (UniProt Q12341)
Test: ITC

Chain of Hat1p/Hat2p/H4_(1-48) complex (yeast (Saccharomyces cerevisiae) | yeast) (Q12341 1-320, chain 1 of 3): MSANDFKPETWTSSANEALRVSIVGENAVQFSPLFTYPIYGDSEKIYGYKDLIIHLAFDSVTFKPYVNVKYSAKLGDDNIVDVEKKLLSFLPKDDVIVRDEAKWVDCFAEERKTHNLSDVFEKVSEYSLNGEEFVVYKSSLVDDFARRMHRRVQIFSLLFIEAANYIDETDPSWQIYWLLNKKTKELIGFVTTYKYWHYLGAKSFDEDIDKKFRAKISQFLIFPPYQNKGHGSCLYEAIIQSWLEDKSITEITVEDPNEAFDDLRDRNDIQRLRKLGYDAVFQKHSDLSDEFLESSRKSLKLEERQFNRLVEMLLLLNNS
Chain of Hat1p/Hat2p/H4_(1-48) complex (yeast (Saccharomyces cerevisiae) | yeast) (P39984 whole entry, chain 2 of 3, further chain): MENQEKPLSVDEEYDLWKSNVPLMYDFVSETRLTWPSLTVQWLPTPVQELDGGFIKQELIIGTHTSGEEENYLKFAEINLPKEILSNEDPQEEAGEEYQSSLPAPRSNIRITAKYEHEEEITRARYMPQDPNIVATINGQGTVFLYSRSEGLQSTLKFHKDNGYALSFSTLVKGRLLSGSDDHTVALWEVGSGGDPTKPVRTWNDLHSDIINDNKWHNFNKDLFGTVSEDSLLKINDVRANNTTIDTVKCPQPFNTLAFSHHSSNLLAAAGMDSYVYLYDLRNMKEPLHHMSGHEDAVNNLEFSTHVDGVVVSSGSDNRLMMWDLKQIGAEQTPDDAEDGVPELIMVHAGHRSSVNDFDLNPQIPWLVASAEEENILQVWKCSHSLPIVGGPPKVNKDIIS
Chain of Hat1p/Hat2p/H4_(1-48) complex (yeast (Saccharomyces cerevisiae) | yeast) (P02309 2-49, chain 3 of 3, further chain): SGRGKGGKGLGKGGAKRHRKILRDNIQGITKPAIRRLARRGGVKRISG

| Substance | Kd [µM] |
| --- | --- |
| H3 peptide (residues 1-15), unmodified (from UniProt P61830 2-16) | 0.34 |
| H3K4me1 peptide | 2.48 |
| H3K4me3 peptide | 11.6 |
| H3K4me2 peptide | 4.78 |
